Results on 140 substances are retold here after the supplement of paper PMC12042874.

± gives the uncertainty stated by the source.

This series is described as follows: amyloid nucleation score (Sup35N fusion, yeast selection) (log enrichment); library NNK2; higher = more nucleation; inactive = no reads after selection. In short, it runs like this:
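Output and input plasmid inserts were sequenced by Illumina after psi-negative yeast carrying Sup35N fused to peptides of 20 random codons had been induced 24 hours with 100 μM copper sulfate and grown 7 days at 30°C on medium lacking adenine and uracil. The nucleation score is the DiMSum log enrichment of output over input reads, centred on the mode score of non-aggregating sequences. Sequences with under 100 input reads were excluded.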

Substance RIMIEFWPRFSWSI returned an amyloid nucleation score of 0.744 ± 0.14.
As for LKLRAPRVMSGIVDSLMWLT, the amyloid nucleation score is -0.32 ± 0.63.
In the case of CTSCLGKRFSCLTINAGLSW, the amyloid nucleation score was -0.916 ± 0.56.
Take FVVESVKVNRSLACF: the amyloid nucleation score is -0.205 ± 0.45.
The value for VLSDRKVY was 0.117 ± 0.79; that for NPGVDQTHFLGFLI was -1.85 ± 1.1; that for YWACDTFSILVLGNTVDSLD was “inactive”.
Next, VELSHFCTGRNSYSRRWISM: 0.422 ± 0.65; SKMWTIRYFSLVRCLHGLLN: -0.985 ± 0.45; MCPLT: 0.638 ± 0.17.
On to ANMCPYAHRVTGVMFCLLPW, for which the amyloid nucleation score entry is “inactive”.
DWQCRGLQYQWFGGVWDANV showed an amyloid nucleation score of -0.882 ± 0.64.
In turn, VITEADRLFHWIWKESLGEE showed an amyloid nucleation score of 4.858 ± 0.035.
On to TVFSYSWQFYGMHSISDYMI, for which the amyloid nucleation score result was “inactive”.
Next, TEELRRFCGSFCTGYISMVW: “inactive”; DVEHPLYWPEDVLKASSETV: 1.91 ± 0.12.
With LDDPGLK, the amyloid nucleation score stood at 0.76 ± 0.14.
Turning to FSKHCYIIMYDISRSKTSIF, the amyloid nucleation score was -0.525 ± 1.1.
As for GNRDF, the amyloid nucleation score result is “inactive”.
For TYDYMKRDIMFTWLKRERKA, the amyloid nucleation score stood at 1.04 ± 0.33.
ENFRGTFKIRRRCCL had an amyloid nucleation score of -0.251 ± 0.76.
The value for CMSSDIYFLVFTESEIVSLC was -0.42 ± 0.76; that for DAAHSFYLSSGNESFVLELT was -0.327 ± 0.63; that for RSLFKLTENCCIIVSWASDN was 8.848 ± 0.057.
Substance SDSFKDPTWREDNRGW displayed an amyloid nucleation score of 2.54 ± 0.085.
Next, PYLPLRYFCWGSK: -0.249 ± 0.79.
On to QLVGSLGGAQGTAGRYRYTG, for which the amyloid nucleation score was 0.658 ± 0.51.
For AVDAVGSLMKRALRLRSMFG, the amyloid nucleation score was 1.12 ± 0.44.
On to MSMLNRALGILKSTFMINRR, for which the amyloid nucleation score is -0.058 ± 0.53.
Next, SGIMRIE: “inactive”.
The value for LGNRLSKIAVGTSFKLFKK was 0.138 ± 1.1; that for VVSFSVRSIPCSRVSFMAFS was -0.304 ± 0.54; that for FHLMFCGSL was -0.818 ± 0.49.
Substance SKLTRSIENLLF showed an amyloid nucleation score of 0.949 ± 0.15.
As to HLFTSCYYYMPLYLLSQRQY, the amyloid nucleation score was found to be 6.095 ± 0.044.
Regarding TTQDHFFSL, the amyloid nucleation score result was “inactive”.
Substance TNPSSKPAWVTSR had an amyloid nucleation score of 0.007 ± 0.79.
WVSRTNELFGPDRLWIDLWH: the amyloid nucleation score was -0.01 ± 1.
In turn, CLLVEHNMLWWWSCCIGCWK displayed an amyloid nucleation score of 0.635 ± 0.37.
Turning to LYVVIIPSEAIHVTKSSHGI, the amyloid nucleation score result was “inactive”.
The value for FRVMQNFHQSYGHYKWVFHF was 5.57 ± 0.057; that for TFKFWCVTKETEQHVSYASR was 4.54 ± 0.067; that for YMLLRSYVFTKLLRLHCYRN was “inactive”.
Next, TFLSSC: 0.096 ± 0.32; ITIQKIVEYISLNPEDT: 5.878 ± 0.055; LFYGLGLICFLISFPIELNH: “inactive”.
In turn, IWQMLVMMKAWKMCPTLVRY displayed an amyloid nucleation score of 1.09 ± 0.41.
TFNLKPRFLFV yielded an amyloid nucleation score of 5.18 ± 0.087.
The substance LLLLF returned an amyloid nucleation score of -1.58 ± 0.75.
Next, NLKLPNRSSWVLPVQYRPFD: 3.28 ± 0.053; VALHWNWDLFLYVRYFFDHT: “inactive”.
As for MICHMFMG, the amyloid nucleation score entry was “inactive”.
Regarding GYTVCRLGCRFVMSLWNILV, the amyloid nucleation score was -0.221 ± 1.1.
Consider NFAGLLY, for which the amyloid nucleation score result was “inactive”.
CVINKKNYDSFGFSVFTFYK showed an amyloid nucleation score of 3.19 ± 0.074.
As to EIHCPMITMISVGRDSMKFN, the amyloid nucleation score worked out at 0.996 ± 0.41.
As for FHARPDSNPEENMVDSGI, the amyloid nucleation score entry is “inactive”.
Consider IMSMGGVLMFWS, for which the amyloid nucleation score came to 3.66 ± 0.12.
The substance SAFYSDAL registered an amyloid nucleation score of 1.08 ± 0.54.
In turn, VLVKL had an amyloid nucleation score of -1.17 ± 0.48.
KKVFLTFLEFVFNAISGWWV: the amyloid nucleation score is -0.67 ± 0.79.
Turning to SIGWRPPCLVFDVGWRREGQ, the amyloid nucleation score is -0.109 ± 0.42.
SGFNGFSLNHFQNQFKTPRS: the amyloid nucleation score was -0.356 ± 1.1.
QWCLSNNVLWEMGVW: the amyloid nucleation score result is “inactive”.
The substance SLESSLAYVGSLGIAGGSAQ yielded an amyloid nucleation score of 1.11 ± 0.23.
For VQNMIDKVMKYWTYSICSTV, the amyloid nucleation score was determined as 1.27 ± 0.36.
SMILT returned an amyloid nucleation score of -1.11 ± 1.1.
As to MITDGGASVGLNYRYS, the amyloid nucleation score was -0.524 ± 0.33.
The value for HFIFVAYRWVSNNAELDLNF was -0.724 ± 0.63; that for VSLGDYASAGFLMWIRLHVW was -0.03 ± 0.56; that for LTPIPFYNPDNISYYNAFPS was “inactive”.
As to SCPGLGNRIPDTVKYT, the amyloid nucleation score turned out to be 0.969 ± 0.22.
Next, MMFNYVFASLGFKRNVHLEC: “inactive”; YRVNALKQIMLRLKQFCRLA: -0.647 ± 0.64.
KHLMMDCAKRMQLRNIRDES gave an amyloid nucleation score of 0.216 ± 0.2.
Take MFSMGEAAAL: the amyloid nucleation score came to 0.305 ± 0.3.
As for GYCSDGWFAECTEWEAPVSR, the amyloid nucleation score stood at 0.343 ± 0.64.
As for TYYVYEVGVS, the amyloid nucleation score is -0.203 ± 0.41.
Next, CHLKFNANVKWLGSLGKLEY: 4.74 ± 0.069; CTIKIGWYWL: 7.512 ± 0.07.
SIVNFWNMIVE displayed an amyloid nucleation score of 3.32 ± 0.15.
Regarding SKVLKRACYGAAGPFRIVHV, the amyloid nucleation score turned out to be 3.29 ± 0.082.
Next, GVSLLVSTSHGFVREPQVTS: 0.526 ± 0.66; MSWVVIQFTINIFRHKTF: 3.47 ± 0.11; LSGVGFLDFRPLN: 0.734 ± 0.81.
Consider TSCSTTAALEVNIRMTDVGV, for which the amyloid nucleation score is 1.59 ± 0.14.
Consider NMLWASMYH, for which the amyloid nucleation score was -0.546 ± 0.42.
FGMNDRRH yielded an amyloid nucleation score of -0.381 ± 0.79.
For the substance RGNMESLWQNRKGRCSLNHG, the amyloid nucleation score result is “inactive”.
The value for WGNNSYSPFASKYAVSQDMD was -0.902 ± 0.62; that for EVEWAFTYHISL was -0.095 ± 0.39.
The substance FRYCAGLMTYRLEFG returned an amyloid nucleation score of 2.49 ± 0.068.
The value for SMSIWSFYIAP was 4.59 ± 0.066; that for TWFRSVMYPDLSHFYMF was “inactive”; that for TFTSRGMMSLGFGRR was 6.01 ± 0.08.
Regarding IYRTYYGINACLINLCMFDN, the amyloid nucleation score was 7.55 ± 0.078.
As to ENVCCGVGSVYKSMLAAPPW, the amyloid nucleation score amounted to 10.23 ± 0.056.
WVCSFHYAEYSLRVIAARFP returned an amyloid nucleation score of 0.081 ± 0.8.
The substance DFALALVYTSMCLVVLYSML showed an amyloid nucleation score of 4.4 ± 0.063.
Consider LLIVNCMLANYSFWIQSSGS, for which the amyloid nucleation score is 5.968 ± 0.029.
The value for VRFHVWDKGHRMI was 1.47 ± 0.18; that for NGGPHRPDSLVWYLEHKMRQ was “inactive”.
Regarding MASSPSVSIIKLFFGVEGLS, the amyloid nucleation score is -0.681 ± 1.
KAAVMRHMSCCCYYHP registered an amyloid nucleation score of 0.845 ± 0.66.
For RDVRQVQRWSYCWRARTRSA, the amyloid nucleation score is 1.19 ± 0.25.
In turn, IFNVHMVRF had an amyloid nucleation score of 9.317 ± 0.052.
The substance LFLLIIFLCTTYVVIKDPTH showed an amyloid nucleation score of 2.73 ± 0.12.
As to IKSSAFGAGVQLAAQRSVIT, the amyloid nucleation score was -0.432 ± 0.29.
The substance YWSICPCCFLVSFSDTSWKG had an amyloid nucleation score of 8.138 ± 0.057.
As to TVIGFRDRDSWSMEMIEDHC, the amyloid nucleation score is -0.272 ± 0.43.
On to VARVY, for which the amyloid nucleation score was -0.625 ± 0.36.
LQYINRGISRHVVKYSRSLS returned an amyloid nucleation score of -0.733 ± 0.41.
The substance FWSSCSLEVYRGFSFAH registered an amyloid nucleation score of 3 ± 0.083.
With YQHDT, the amyloid nucleation score was determined as 0.871 ± 0.27.
The substance RYNDAFSVCRMDEITAWIWC yielded an amyloid nucleation score of 2.67 ± 0.085.
As to NRTFSHWTCLYLFLSTLKRE, the amyloid nucleation score is -1.06 ± 0.76.
PDVVNNGGSYHLHWGCWCW gave an amyloid nucleation score of 3.25 ± 0.14.
Turning to YGRCVDLFCGIRYLHGSRLA, the amyloid nucleation score is -0.299 ± 1.1.
Regarding TDHMHKISRVHRDKKMSVGF, the amyloid nucleation score is -0.707 ± 1.1.
In turn, VSCTWFGS came in with an amyloid nucleation score of 0.797 ± 0.28.
Substance HLCGGHGLVFFWGFVTMKCG gave an amyloid nucleation score of 0.369 ± 0.8.
The substance LIKLMGKSLTRDRY gave an amyloid nucleation score of -0.771 ± 1.1.
For the substance GWFKESVFLGFWVRISNSQV, the amyloid nucleation score was -1.75 ± 1.1.
Next, IQWFIWN: 6.806 ± 0.027; CIVAFEFLYWCRRIAFNPGG: -0.475 ± 0.31.
Take SMSYTS: the amyloid nucleation score was determined as 0.617 ± 0.14.
As to FRGIGWAC, the amyloid nucleation score amounted to 0.907 ± 0.47.
The value for FLIVPKILNICL was 7.746 ± 0.077; that for SYTVAYISYFMLLLDGWGNR was 0.815 ± 0.12; that for SVGRHS was -0.841 ± 0.62.
In turn, NCTHPFDMTPNFFWSYGIVG had an amyloid nucleation score of -0.656 ± 1.1.
EINGY came in with an amyloid nucleation score of -0.418 ± 1.
For the substance FISMGQGRPEFLWVFVDVGD, the amyloid nucleation score is 0.092 ± 1.1.
Regarding IFRSMFILTYPGSRYNDEYL, the amyloid nucleation score came out at 4.13 ± 0.061.
Next, IFRISPSLGKRYGVRPERSW: 1.32 ± 0.38; DLYWSMLLYVMSRVYE: 0.249 ± 0.64; AIRRYIVKAPLLCES: 1.75 ± 0.47.
The substance FRGGSCYIVVWA returned an amyloid nucleation score of 6.573 ± 0.04.
The value for VLEDNALVRYKDRGSSGWTV was 3.15 ± 0.059; that for DKLLMVSIFFSDSMTSLS was “inactive”.
